This note sets out measurements from US20220041746A1 (Sanofi, published 2022).

Changes are numbered by the printed parent chain. “And” between values parts separate entries of the source, which are not always exact repeats. Identical values can stand only once.

The target of test [1] is T1, human CD3 (Cambridge Biologics LLC Cat #03-01-0051) (human, UniProt P07766 23-126; P09693 23-116).
T1 construct: the reagent may hold further CD3 chains
Nature of the test: ELISA on coated hCD3 γε IgG4; the arrow ends on the second curve from the right, which carries the small markers. Here is the method:
(§1) The binding properties of the purified antibodies were analyzed either using ELISA or SPR methods. For ELISA, corresponding antigens for each binding site in the trispecific binding protein were used to coat a 96-well Immuno Plate (Nunc 439454, Thermo Fisher Scientific) overnight at 4° C. using 2 μg/ml each antigen m PBS(pH7.4). The coated plate was blocked using 5% skim milk 12% BSA in PBS for one hour at RT, followed by washing with PBS+[…] three times (Aqua Max 400, Molecular Devices). Serial dilution of antibodies (trispecific and control Abs) were prepared and added onto the ELISA plates (100 μl/well in duplicate), incubated at RT for one hour, followed by washing 5 times with PBS+0.25% Tween 20.
(§2) The reaction was terminated by adding 50 μl 1M H₂SO₄, and OD₄₅₀ was measured using SpectraMax M5 (Molecular Devices) and analyzed using SoltMax Pro6.3 software (Molecular Devices). The final data was transferred to GraphPad Prism software (GraphPad Software, CA. USA), and plotted as shown. EC50 was calculated using the same software.
A general note: ELISA stands for enzyme-linked immunosorbent assay.

The target in test [2] is T2, recombinant human CD38 (SPR of Example 4) (human, UniProt P28907 45-300, limits assumed). Nature of the test: SPR (column 'KD value against rec. protein by SPR (nM)'); second value of the pair, taken for CD3low.
The target in test [3] is human CD28 (SPR of Example 4) (human, UniProt P10747 19-152, limits assumed). Nature of the test: SPR; KD rounded to an integer; second value of the pair, taken for CD3low. As to the method:
(§3) Surface regenerate was conducted by injecting 10 mM Glycine-HCl pH 2.5 for 60 sec at 30 μl/min. […] Equilibrium dissociation constant (KD) was calculated using association rate constant (kₒₙ) and dissociation rate constant (koff).
In general terms: Surface plasmon resonance follows binding to a sensor surface in real time, without labels.

The target in test [4] is T2, recombinant human CD38 (SPR of Example …). Described as above. Here is the method: as §3
Test [5] concerns the target T3, cynomolgus monkey CD38 expressed on the cell surface (cynomolgus monkey, UniProt Q5VAN0 1-301).
T3 construct: whole, on cells; also called cCD38-expressing cells
As to the kind of experiment: flow cytometry (column FACS EC50 nM, cyno). Here is the method: (§4) The recombinant cell line was described by J. Deckket et al. 2014 Clin Cancer Res 20:4574-4583. […] Antibody binding was evaluated after centrifugation and resuspension of cells by adding 200 μL/well PBS 1% BSA and read using Guava® easvCyte™ 8HT Flow Cytometry System. Apparent KD and EC50 values were estimated using BIOST@T-BINDING and BIOST@T-SPEED software, respectively.
On the technique in general: A flow cytometer gives signals particle by particle.

In test [6] the target is T4, human CD38 expressed on the cell surface (human, UniProt P28907 1-300).
T4 construct: whole, on cells; also called hCD38-expressing cells; huCD38
As to the kind of experiment: flow cytometry (column FACS EC50 nM, hu). Here is the method:
as §4

In test [7] the target is T5, hCD38-his (SEQ ID NO: 2) (human, UniProt P28907 45-300).
T5 construct: His-tagged soluble protein derived from isoform A; also called human CD38-histag; hCD38::Histag
Nature of the test: SPR, mAb captured via anti-human Fc, soluble CD38-his injected. Here is the method: (§5) The binding properties of the anti-huCD38 mabs were evaluated using a BIAcore 2000 (BIAcore Inc., Uppsala, Ni). […] The surface was regenerated between injections using 30 μL of 50 mM NaOH-1 M NaCl. Individual sensorgrams wore analyzed using BIAsimulation software.

For test [8], the target named is T6, cCD38-his (SEQ ID NO: 4) (cynomolgus monkey, UniProt Q5VAN0 46-301).
T6 construct: His-tagged soluble protein; also called cyno CD38-histag; cynoCD38::Histag
Described as above. As to the method:
as §5

For test [9], the target named is T5, hCD38-his (SEQ ID NO: 2). As to the kind of experiment: ELISA on hCD38::Histag.
Test [10] addresses T4, human CD38 expressed on the cell surface. Nature of the test: flow cytometry on preB::300.19 cells, apparent KD. As to the method:
as §4

Test [11] concerns the target T3, cynomolgus monkey CD38 expressed on the …. Nature of the test: flow cytometry on preB::300.19 cells, apparent KD. As to the method: as §4
The target in test [12] is T6, cCD38-his (SEQ ID NO: 4). As to the kind of experiment: ELISA on cynoCD38::Histag [Cont.].
The target of test [13] is T4, human CD38 expressed on the cell surface. Nature of the test: flow cytometry (FACS) on 300.19 PreB hCD38 cells. As to the method: as §4
The target of test [14] is T6, cCD38-his (SEQ ID NO: 4). As to the kind of experiment: ELISA (column ELISA EC50 nM, cyno).
Test [15] addresses T3, cynomolgus monkey CD38 expressed on the …. As to the kind of experiment: flow cytometry (FACS) on 300.19 PreB cynoCD38 cells [Cont.]. Here is the method:
as §4

Test [16] concerns the target T5, hCD38-his (SEQ ID NO: 2). Nature of the test: ELISA (column ELISA EC50 nM, hu).
The target in test [17] is T3, cynomolgus monkey CD38 expressed on the …. Nature of the test: flow cytometry on 300.19 cynoCD38 cells (PréB cCD38). Here is the method:
(§6) The recombinant cell line was described by J. Deckket et al. 2014 Clin. Cancer Res 20:4574-4583. […] Antibody binding was evaluated after centrifugation and resuspension of cells by adding 200 μl/well PBS 1% BSA and read using Guava® easyCyte™ 8HT Flow Cytometry System. Apparent KD and EC50 values were estimated using BIOST®T-BINDING and BIOST®T-SPEED software, respectively.

Test [18] deals with T2, recombinant human CD38 (SPR of Example …). Nature of the test: SPR; KD rounded to an integer; first value of the pair, taken for CD3mid.
Test [19] addresses T4, human CD38 expressed on the cell surface. As to the kind of experiment: flow cytometry on 300.19 huCD38 cells (PréB hCD38). As to the method: as §6
For test [20], the target named is T2, recombinant human CD38 (SPR of Example …). As to the kind of experiment: SPR (column 'KD value against rec. protein by SPR (nM)'); first value of the pair, taken for CD3mid.
For test [21], the target named is T4, human CD38 expressed on the cell surface. As to the kind of experiment: flow cytometry, 'Apparent KD value against rec. cells by FACS (nM)'; single value of the mid/low row, equal to the EC50 of the CD3mid protein in FIG. 6B. As to the method:
as §6

Test [22] deals with human CD38 (Cambridge Biologics LLC Cat #03-01-0369) (human, UniProt P28907 43-300). Nature of the test: ELISA on coated hCD38-His. As to the method: as §1, §2
The target of test [23] is T5, hCD38-his (SEQ ID NO: 2). Nature of the test: ELISA on hCD38::Histag. This is another data set of the same source.
Test [24] has as its target T6, cCD38-his (SEQ ID NO: 4). As to the kind of experiment: ELISA on cynoCD38::Histag [Cont.]. The source holds these as a separate data set.
In test [25] the target is T1, human CD3 (Cambridge Biologics LLC Cat …). As to the kind of experiment: ELISA on coated hCD3 γε IgG4; the arrow ends on the rightmost curve, which carries the triangles. Here is the method:
as §1, §2

B1: CD38VH1×CD28cvn×CD3low IgG4 (other)
VH 1: QVQLVQSGAEVVKPGASVKVSCKASGYTFTSYAMHWVKEAPGQRLEWIGYIYPGQGGTNYNQKFQGRATLTADTSASTAYMELSSLRSEDTAVYFCARTGGLRRAYFTYWGQGTLVTVSS
VL 1: DIVLTQSPATLSLSPGERATISCRASQSVSSYGQGFMHWYQQKPGQPPRLLIYGASSRATGIPARFSGSGSGTDFTLTISPLEPEDFAVYYCQQNKEDPWTFGGGTKLEIK
VH 2: QVQLQESGPGLVKPSQTLSLTCTVSGFSLSDYGVHWVRQPPGKGLEWLGVIWAGGGTNYNPSLKSRKTISKDTSKNQVSLKLSSVTAADTAVYYCARDKGYSYYYSMDYWGQGTTVTVSS
VL 2: DIVLTQSPASLAVSPGQRATITCRASESVEYYVTSLMQWYQQKPGQPPKLLIFAASNVESGVPARFSGSGSGTDFTLTINPVEANDVANYYCQQSRKVPYTFGQGTKLEIK
VH 3: QVQLVESGGGVVQPGRSLRLSCAASGFTFTKAWMHWVRQAPGKGLEWVAQIKDKSNSYATYYADSVKGRFTISRDNSKNTLYLQMNSLRAEDTAVYYCRGVYYALSPFDYWGQGTLVTVSS
VL 3: DIVMTQTPLSLSVTPGQPASISCKSSQSLVHNNGNTYLSWYLQKPGQSPQLLIYKVSNRFSGVPDRFSGSGSGTDFTLKISRVEAEDVGVYYCGQGTQYPFTFGGGTKVEIK
notes: also called CD38VH1×CD28evn×CD3low IgG4
For the molecule B1, the response in test [1] was half-maximal at 0.491 nM (EC50). For the same molecule, the Kd in test [2] is 6 nM; in test [3] it was 34 nM; in [4] it was 6 nM.

B2: mAb3 (antibody, human IgG1, kappa, V domains shown)
VH: B1 VH 1 with Y32F, A33N, Q55N
VL: DIVLTQSPATLSLSPGERATISCRASESVDSYGNGFMHWYQQKPGQPPRLLIYLASSRATGIPARFSGSGSGTDFTLTISPLEPEDFAVYYCQQNKEDPWTFGGGTKLEIKR
notes: also called antiCD38_C2-CD38-1_VH3-VL3
As to B2, the EC50 – broadly, the midpoint of the concentration-response curve – in test [5] was 1.31 nM; in test [6], 0.78 nM; in [9], 0.16 nM; in test [12], 0.15 nM; in [13], 0.78 nM and 0.117 µg/mL; in [14], 0.15 nM. Further, the values for the EC50 in [15] and in [16] were 1.31 nM and 0.16 nM, respectively. For the same molecule, the Kd came out at 0.483 nM in [7], 0.71 nM in [8], 0.78 nM in test [10] and 1.31 nM in [11]. In addition, the koff (commonly the first-order rate constant of dissociation) in [7] was determined as 0.000283 s⁻¹; in [8], 0.000129 s⁻¹.

B3: CD38VH1×CD28sup×CD3mid IgG4 (other)
VH 1: B1 VH 1
VL 1: B1 VL 1
VH 2: QVQLVQSGAEVVKPGASVKVSCKASGYTFTSYYIHWVRQAPGQGLEWIGSIYPGNVNTNYAQKFQGRATLTVDTSISTAYMELSRLRSDDTAVYYCTRSHYGLDWNFDVWGKGTTVTVSS
VL 2: DIQMTQSPSSLSASVGDRVTITCQASQNIYVWLNWYQQKPGKAPKLLIYKASNLHTGVPSRFSGSGSGTDFTLTISSLQPEDIATYYCQQGQTYPYTFGQGTKLEIK
VH 3: B1 VH 3 with G44Q, N76D
VL 3: B1 VL 3 with G34A, L51S, G105S
notes: also called anti-CD38(VH1)×CD28(sup)×CD3(mid)
Consider B3, for which the EC50 is 17 nM and 2.53 µg/mL in test [17]; 11 nM and 1.67 µg/mL in [19]. Further, the Kd in test [18] was found to be 4 nM; in [20] it was 4 nM; in test [21], 11 nM. Besides, the EC50 (read off the curve) (usually the concentration that produces a half-maximal response) in [22] is roughly 3 nM.

B4: mAb5 (antibody, human IgG1, kappa, V domains shown)
VH: B1 VH 1 with V20M, Y32F, A33N, Q55N, L83I
VL: B2 VL
notes: also called antiCD38_C2-CD38-1_VH6-VL3
Turning to B4, the EC50 in test [5] is 1.06 nM; in test [6], 0.68 nM; in [23], 0.14 nM; in [24] it was 0.14 nM; in test [13], 0.68 nM and 0.102 µg/mL; in [14], 0.14 nM. For the same molecule, the EC50 is 1.06 nM and 0.16 µg/mL in test [15]; 0.14 nM in [16]. Also, the Kd in test [7] came to 0.312 nM; in test [8] it was 0.563 nM; in test [10] it was 0.68 nM; in [11] it was 1.07 nM. Besides, the koff in [7] is 0.000333 s⁻¹; in [8], 0.000125 s⁻¹.

B5: CD38VH1×CD28sup×CD3low IgG4 (other)
VH 1: B1 VH 1
VL 1: B1 VL 1
VH 2: B3 VH 2
VL 2: B3 VL 2
VH 3: B1 VH 3
VL 3: B1 VL 3
Regarding B5, it took 1.04 nM to reach a half-maximal effect in test [25] (EC50). Moreover, the results for the Kd in test [2], in test [3] and in [4] were 6 nM, 4 nM and 6 nM, respectively. In addition, in [22], the 50% effective concentration (EC50 (read off the curve)) was roughly 6 nM.
